Measured values reported in US20140271648A1 (Janssen / Centocor, published 2014).
Changes are numbered by the printed parent chain.

T1: human IFNαF (human, UniProt P01568 24-189)
T1 chain: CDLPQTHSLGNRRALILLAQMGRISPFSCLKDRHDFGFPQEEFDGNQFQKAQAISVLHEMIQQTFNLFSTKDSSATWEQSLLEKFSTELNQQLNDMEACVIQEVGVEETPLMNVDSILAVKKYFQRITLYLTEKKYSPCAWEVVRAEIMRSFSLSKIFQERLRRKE

T2: human IFNαD (human, UniProt A0A087WWS6 25-190)
T2 construct: also called Alpha D (alpha 1); IFNα1
T2 chain: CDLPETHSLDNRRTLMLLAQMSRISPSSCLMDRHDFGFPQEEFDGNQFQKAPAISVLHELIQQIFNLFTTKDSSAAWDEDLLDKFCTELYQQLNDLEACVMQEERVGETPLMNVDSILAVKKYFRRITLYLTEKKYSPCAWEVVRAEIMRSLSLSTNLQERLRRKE

B1: IFWM43 (antibody, V domains shown)
VH: QVQLVQSGAEVKKPGSSVKVSCKASGGTFSSYAISWVRQAPGQGLEWMGGIIPIFGTANYAQKFQGRVTITADESTSTAYMELSSLRSEDTAVYYCARDSWGSYYAALDYWGQGTLVTVSS
VL: not shown
notes: Fab from a pIX phage display library, converted to human IgG1 mAb; also called anti IFNα/ω mAb M43
B2: IFWM88 (antibody, V domains shown)
VH: B1 VH with D99H, S100L, W101E, G102Y, S103A, Y104F, Y105P, A106D, A107K, L108F
VL: not shown
notes: Fab from a pIX phage display library, converted to human IgG1 mAb
B3: C2595 (antibody, V domains shown)
VH: EVQLQQSGGDLVKPGGSLKLSCAASGFTFSSYGMSWVRQTPDKRLDWVSIITSGGSYTYYPDSVKGRFTISRDNAKNTLYLQMSSLKSEDTAMYYCARHAEGGGNYDYAMDYWGQGTSVTVSS
VL: DIVMTQAAFSNPVTLGTSASISCRSSKSLLHSNGITYLYWYLQKPGQSPQLLIYQMSNLASGVPDRFSSSGSGIDFTLRISRVEAEDVGAYYCAQNLELPFTFGSGTKLEIK
B4: M3239 (antibody, human IgG1, V domains shown)
VH: B3 VH
VL: B3 VL
B5: FabM43 (Fab, V domains shown)
VH: B1 VH
VL: not shown
notes: His-tagged Fab, IgG1/κ isotype, expressed in HEK293F cells; also called Fab of IFWM43; His-tagged FabM43
B6: Fab357 (Fab, V domains shown)
VH: B3 VH
VL: B3 VL
notes: also called Fab of C2595

Columns and labels:
human IFNαH2 [1] = target: T3, human IFNαH2 (human, UniProt P01570 24-189); assay: cell-based or functional assay
T3 sequence (P01570 24-189): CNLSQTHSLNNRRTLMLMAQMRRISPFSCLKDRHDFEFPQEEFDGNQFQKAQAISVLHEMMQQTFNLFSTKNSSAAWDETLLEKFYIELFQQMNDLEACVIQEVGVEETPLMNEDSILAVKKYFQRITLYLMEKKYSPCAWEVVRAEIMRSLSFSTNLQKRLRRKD

human IFNαK [2] = target: T4, human IFNαK (human, UniProt P05013 24-189); assay: cell-based or functional assay
T4 sequence (P05013 24-189): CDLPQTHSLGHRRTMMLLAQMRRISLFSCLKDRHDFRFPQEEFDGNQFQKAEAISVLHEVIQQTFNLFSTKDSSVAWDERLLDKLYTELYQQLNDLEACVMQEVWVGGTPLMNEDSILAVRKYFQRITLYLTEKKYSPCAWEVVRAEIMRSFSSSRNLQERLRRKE

human IFNαF [3] = target: T1, human IFNαF; assay: cell-based or functional assay
human IFNω [4] = target: T5, human IFNω (human, UniProt P05000 24-195); assay: cell-based or functional assay
T5 sequence (P05000 24-195 limits assumed): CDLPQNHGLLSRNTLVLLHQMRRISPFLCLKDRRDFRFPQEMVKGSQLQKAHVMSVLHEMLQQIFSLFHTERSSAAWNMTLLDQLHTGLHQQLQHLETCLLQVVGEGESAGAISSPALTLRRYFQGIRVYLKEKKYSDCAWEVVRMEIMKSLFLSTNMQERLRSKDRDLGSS

human IFNαJ1 [5] = target: T6, human IFNαJ1 (human, UniProt P01567 24-189); assay: cell-based or functional assay
T6 sequence (P01567 24-189): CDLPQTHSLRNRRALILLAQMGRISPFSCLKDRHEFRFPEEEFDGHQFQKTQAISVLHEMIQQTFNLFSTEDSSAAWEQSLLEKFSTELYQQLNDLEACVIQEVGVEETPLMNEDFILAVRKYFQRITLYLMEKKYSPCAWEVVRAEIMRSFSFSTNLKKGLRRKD

human IFNαWA [6] = target: T7, human IFNαWA (human, UniProt P05015 24-189); assay: cell-based or functional assay
human IFNαG [7] = target: T8, human IFNαG (human, UniProt P01569 24-189); assay: cell-based or functional assay
T8 sequence (P01569 24-189): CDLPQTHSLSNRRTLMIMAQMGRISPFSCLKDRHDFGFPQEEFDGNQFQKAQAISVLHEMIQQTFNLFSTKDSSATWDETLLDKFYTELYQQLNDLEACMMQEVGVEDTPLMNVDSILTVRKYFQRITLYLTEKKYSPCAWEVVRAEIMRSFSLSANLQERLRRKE

human IFNαC [8] = target: T9, human IFNαC (human, UniProt P01566 24-189); assay: cell-based or functional assay
T9 sequence (P01566 24-189): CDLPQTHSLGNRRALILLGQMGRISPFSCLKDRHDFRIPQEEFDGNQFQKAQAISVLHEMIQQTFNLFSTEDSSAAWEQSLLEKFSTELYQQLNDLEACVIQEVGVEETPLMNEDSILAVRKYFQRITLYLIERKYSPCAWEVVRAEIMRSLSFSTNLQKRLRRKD

human IFNαH2 [9] = target: T3, human IFNαH2; assay: SPR (ProteOn); mAb captured on anti-human Fc, IFN as analyte
Procedure: (§1) Binding affinities of the antibodies were performed using SPR technology with ProteOn (Bio-Rad Hercules, Calif.). Goat anti-human Fc antibodies (manufacture) were amine-coupled to GLC chips (Bio-Rad Hercules, Calif.) using standard NHS/EDC chemistry as manufacture recommended. The anti-IFN mAbs were then loaded on the antibody coupled chip for 2 minutes at the flow rate of 30 μl/min. […] The chips were generated with 100 mM phosphoric acid in each direction between running different antigens. Data analysis was performed using ProteOn manager (Bio-Rad Hercules, Calif.). The sensorgrams were grouped by mAbs. After applying alignment and reference correction (using either interspot or blank channel referencing), the SPR data were fit globally to Langmuir model for kinetic rate constants (KD=koff/kₒₙ, where KD=equilibrium dissociation constant, kₒₙ=association rate constant, and koff=dissociation rate constant).

human IFNαK [10] = target: T4, human IFNαK; assay: as above
Procedure: as §1

human IFNαF [11] = target: T1, human IFNαF; assay: as above
Procedure: as §1

human IFNω [12] = target: T5, human IFNω; assay: as above
Procedure: as §1

human IFNαJ1 [13] = target: T6, human IFNαJ1; assay: as above
Procedure: as §1

human IFNαWA [14] = target: T7, human IFNαWA; assay: as above
Procedure: as §1

human IFNαG [15] = target: T8, human IFNαG; assay: as above
Procedure: as §1

human IFNαD = target: T2, human IFNαD; assay: as above
Procedure: as §1

human IFNαC [16] = target: T9, human IFNαC; assay: as above
Procedure: as §1

human IFNβ = target: T10, human IFNβ (human, UniProt P01574 22-187); assay: as above
T10 construct: also called interferon-β
T10 sequence (P01574 22-187 limits assumed): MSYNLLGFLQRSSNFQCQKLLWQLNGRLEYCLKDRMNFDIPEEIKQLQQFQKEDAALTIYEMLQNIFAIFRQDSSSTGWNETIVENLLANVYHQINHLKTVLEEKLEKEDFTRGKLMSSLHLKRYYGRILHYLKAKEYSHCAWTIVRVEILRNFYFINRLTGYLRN
Procedure: as §1

human IFNω T80E variant = target: T11, human IFNω T80E variant (human, UniProt P05000 24-195); assay: complex formed, purified by size exclusion and co-crystallized
T11 construct: Expressed in HEK293F cells; used for the crystal structures; In the Fab357 crystal only residues R22-P39 and L118-L154 were seen (proteolytic cleavage during crystallization); also called IFN-omega (T80E)
T11 sequence (P05000 24-195 T103E limits assumed): as the sequence (P05000 24-195 limits assumed) above, with T80E counted along it

Row | Binder | IC50, ISRE reporter gene assay (human IFNαH2 [1]) | IC50, ISRE reporter gene assay (human IFNαF [3]) | IC50, ISRE reporter gene assay (human IFNω [4]) | IC50, ISRE reporter gene assay (human IFNαJ1 [5]) | IC50, ISRE reporter gene assay (human IFNαG [7]) | IC50, ISRE reporter gene assay (human IFNαC [8]) | Kd (human IFNαH2 [9]) | Kd (human IFNαF [11]) | Kd (human IFNω [12]) | Kd (human IFNαJ1 [13]) | Kd (human IFNαWA [14]) | Kd (human IFNαG [15]) | binding result (human IFNαD) | Kd (human IFNαC [16]) | binding result (human IFNβ) | binding result (human IFNω T80E variant) | other results
1 | B1 | 51 nM | 3.7 nM | 18.5 nM | 1 nM | 5.3 nM | 14.9 nM | 0.6 nM | 0.9 nM | 0.3 nM | 0.4 nM | 0.6 nM | 0.6 nM | no binding (tested: antigen up to 100 nM) | 0.4 nM |  |  | IC50, ISRE reporter gene assay (human IFNαK [2]): 10.4 nM; IC50, ISRE reporter gene assay (human IFNαWA [6]): 9.2 nM; Kd (human IFNαK [10]): 0.3 nM
2 | B2 |  | 24.6 nM |  | 21.9 nM | 23.4 nM | 136 nM | 5.5 nM | 1 nM | 53 nM | 4.5 nM | 97.3 nM | 0.8 nM | no binding (tested: antigen up to 100 nM) | 3.2 nM | no binding (tested: antigen up to 100 nM) |  | 
3 | B3 | 20.3 nM | 2.6 nM | 0.9 nM | 1.4 nM | 2.6 nM | 1.5 nM |  |  |  |  |  |  |  |  |  |  | 
4 | B4 |  |  |  |  |  |  | 61.6 nM | 15.1 nM | 4.5 nM | 4.3 nM |  | 10.3 nM | no binding (tested: antigen up to 100 nM) | 1.3 nM | no binding (tested: antigen up to 100 nM) |  | binding result (human IFNαK [10]): no binding (tested: antigen up to 100 nM); binding result (human IFNαWA [14]): no binding (tested: antigen up to 100 nM)
5 | B5 |  |  |  |  |  |  |  |  |  |  |  |  |  |  |  | binds | 
6 | B6 |  |  |  |  |  |  |  |  |  |  |  |  |  |  |  | binds | 
